B1: RSPH3 (parent)
chain: KAASLARNLAKRRRTYLGGAAGRS
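Further: lentivirally expressed fusions sorted by FACS into six bins by GFP to DsRed ratio, PSI derived from sequencing read proportions per bin multiplied by bin number.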

Variants of: B1
Test: protein stability index of a GFP-peptide fusion (GPS, HEK-293T) (PSI 1-6); higher = more stable
Conditions: c terminus: a fixed tail appended
For KAFSLARNLAKRRRTYLGGAAGRS, the protein stability index was 1.01.
KAGSLARNLAKRRRTYLGGAAGRS gave a protein stability index of 3.72.
Work on KAHSLARNLAKRRRTYLGGAAGRS yielded a protein stability index of 3.48.
With KAKSLARNLAKRRRTYLGGAAGRS the protein stability index was 2.68.
KANSLARNLAKRRRTYLGGAAGRS gave a protein stability index of 2.69.
KAPSLARNLAKRRRTYLGGAAGRS showed a protein stability index of 3.96.
KAQSLARNLAKRRRTYLGGAAGRS gave a protein stability index of 3.71.
KARSLARNLAKRRRTYLGGAAGRS gave a protein stability index of 3.01.
KAYSLARNLAKRRRTYLGGAAGRS showed a protein stability index of 1.74.
Variant KAAALARNLAKRRRTYLGGAAGRS has a protein stability index of 1.89.
For KAACLARNLAKRRRTYLGGAAGRS, the protein stability index was 1.98.
For KAADLARNLAKRRRTYLGGAAGRS, the protein stability index was 3.47.
KAAELARNLAKRRRTYLGGAAGRS showed a protein stability index of 1.99.
Variant KAAGLARNLAKRRRTYLGGAAGRS has a protein stability index of 3.32.
Work on KAAHLARNLAKRRRTYLGGAAGRS yielded a protein stability index of 2.32.
Variant KAAILARNLAKRRRTYLGGAAGRS has a protein stability index of 1.83.
In the case of KAANLARNLAKRRRTYLGGAAGRS, the protein stability index is reported as 3.2.
KAAQLARNLAKRRRTYLGGAAGRS gave a protein stability index of 2.36.
For KAARLARNLAKRRRTYLGGAAGRS, the protein stability index was 2.82.
Work on KAAVLARNLAKRRRTYLGGAAGRS yielded a protein stability index of 2.36.
KAAWLARNLAKRRRTYLGGAAGRS gave a protein stability index of 1.89.
In the case of KAAYLARNLAKRRRTYLGGAAGRS, the protein stability index is reported as 1.48.
KAASAARNLAKRRRTYLGGAAGRS showed a protein stability index of 4.18.
With KAASCARNLAKRRRTYLGGAAGRS the protein stability index was 2.89.
With KAASDARNLAKRRRTYLGGAAGRS the protein stability index was 4.65.
With KAASFARNLAKRRRTYLGGAAGRS the protein stability index was 2.56.
Variant KAASGARNLAKRRRTYLGGAAGRS has a protein stability index of 4.8.
In the case of KAASIARNLAKRRRTYLGGAAGRS, the protein stability index is reported as 2.58.
For KAASMARNLAKRRRTYLGGAAGRS, the protein stability index was 2.33.
For KAASQARNLAKRRRTYLGGAAGRS, the protein stability index was 4.14.
Work on KAASTARNLAKRRRTYLGGAAGRS yielded a protein stability index of 3.96.
KAASVARNLAKRRRTYLGGAAGRS showed a protein stability index of 4.21.
Work on KAASWARNLAKRRRTYLGGAAGRS yielded a protein stability index of 2.58.
In the case of KAASLCRNLAKRRRTYLGGAAGRS, the protein stability index is reported as 1.06.
KAASLFRNLAKRRRTYLGGAAGRS gave a protein stability index of 2.23.
For KAASLGRNLAKRRRTYLGGAAGRS, the protein stability index was 3.27.
KAASLHRNLAKRRRTYLGGAAGRS showed a protein stability index of 2.2.
Work on KAASLKRNLAKRRRTYLGGAAGRS yielded a protein stability index of 2.4.
For KAASLMRNLAKRRRTYLGGAAGRS, the protein stability index was 2.52.
Variant KAASLPRNLAKRRRTYLGGAAGRS has a protein stability index of 3.94.
In the case of KAASLRRNLAKRRRTYLGGAAGRS, the protein stability index is reported as 2.56.
In the case of KAASLSRNLAKRRRTYLGGAAGRS, the protein stability index is reported as 3.07.
With KAASLWRNLAKRRRTYLGGAAGRS the protein stability index was 1.58.
Variant KAASLYRNLAKRRRTYLGGAAGRS has a protein stability index of 1.94.
Work on KAASLADNLAKRRRTYLGGAAGRS yielded a protein stability index of 3.83.
Work on KAASLAENLAKRRRTYLGGAAGRS yielded a protein stability index of 4.36.
With KAASLAGNLAKRRRTYLGGAAGRS the protein stability index was 2.54.
For KAASLALNLAKRRRTYLGGAAGRS, the protein stability index was 2.51.
For KAASLANNLAKRRRTYLGGAAGRS, the protein stability index was 3.59.
Variant KAASLASNLAKRRRTYLGGAAGRS has a protein stability index of 2.58.
In the case of KAASLATNLAKRRRTYLGGAAGRS, the protein stability index is reported as 2.08.
Variant KAASLAVNLAKRRRTYLGGAAGRS has a protein stability index of 1.98.
Work on KAASLARDLAKRRRTYLGGAAGRS yielded a protein stability index of 3.23.
Variant KAASLARFLAKRRRTYLGGAAGRS has a protein stability index of 2.33.
KAASLARGLAKRRRTYLGGAAGRS gave a protein stability index of 3.98.
For KAASLARKLAKRRRTYLGGAAGRS, the protein stability index was 2.52.
KAASLARLLAKRRRTYLGGAAGRS gave a protein stability index of 2.26.
Variant KAASLARQLAKRRRTYLGGAAGRS has a protein stability index of 1.35.
KAASLARSLAKRRRTYLGGAAGRS gave a protein stability index of 2.88.
Work on KAASLARYLAKRRRTYLGGAAGRS yielded a protein stability index of 3.42.
With KAASLARNAAKRRRTYLGGAAGRS the protein stability index was 3.41.
With KAASLARNEAKRRRTYLGGAAGRS the protein stability index was 4.34.
KAASLARNFAKRRRTYLGGAAGRS gave a protein stability index of 2.44.
KAASLARNKAKRRRTYLGGAAGRS showed a protein stability index of 4.94.
For KAASLARNNAKRRRTYLGGAAGRS, the protein stability index was 4.46.
Variant KAASLARNPAKRRRTYLGGAAGRS has a protein stability index of 3.94.
For KAASLARNRAKRRRTYLGGAAGRS, the protein stability index was 4.9.
In the case of KAASLARNWAKRRRTYLGGAAGRS, the protein stability index is reported as 2.38.
KAASLARNLCKRRRTYLGGAAGRS gave a protein stability index of 1.98.
KAASLARNLDKRRRTYLGGAAGRS showed a protein stability index of 3.14.
KAASLARNLFKRRRTYLGGAAGRS showed a protein stability index of 1.29.
KAASLARNLGKRRRTYLGGAAGRS showed a protein stability index of 4.07.
For KAASLARNLHKRRRTYLGGAAGRS, the protein stability index was 3.15.
KAASLARNLNKRRRTYLGGAAGRS gave a protein stability index of 2.64.
KAASLARNLSKRRRTYLGGAAGRS showed a protein stability index of 2.91.
With KAASLARNLTKRRRTYLGGAAGRS the protein stability index was 3.17.
KAASLARNLVKRRRTYLGGAAGRS showed a protein stability index of 2.43.
Work on KAASLARNLAARRRTYLGGAAGRS yielded a protein stability index of 1.64.
With KAASLARNLAFRRRTYLGGAAGRS the protein stability index was 1.92.
Variant KAASLARNLAGRRRTYLGGAAGRS has a protein stability index of 2.49.
For KAASLARNLAIRRRTYLGGAAGRS, the protein stability index was 2.78.
Variant KAASLARNLANRRRTYLGGAAGRS has a protein stability index of 2.36.
For KAASLARNLAPRRRTYLGGAAGRS, the protein stability index was 2.89.
KAASLARNLAQRRRTYLGGAAGRS gave a protein stability index of 1.98.
Variant KAASLARNLARRRRTYLGGAAGRS has a protein stability index of 2.91.
KAASLARNLATRRRTYLGGAAGRS showed a protein stability index of 1.56.
In the case of KAASLARNLAWRRRTYLGGAAGRS, the protein stability index is reported as 1.71.
KAASLARNLAKCRRTYLGGAAGRS gave a protein stability index of 2.46.
Variant KAASLARNLAKFRRTYLGGAAGRS has a protein stability index of 1.68.
In the case of KAASLARNLAKGRRTYLGGAAGRS, the protein stability index is reported as 2.75.
Variant KAASLARNLAKHRRTYLGGAAGRS has a protein stability index of 2.41.
Work on KAASLARNLAKIRRTYLGGAAGRS yielded a protein stability index of 2.24.
For KAASLARNLAKKRRTYLGGAAGRS, the protein stability index was 2.9.
Work on KAASLARNLAKNRRTYLGGAAGRS yielded a protein stability index of 2.4.

Source: the supplement of paper PMC10567573
